B1: GST-Gadd45β: full-length murine Gadd45β directly fused to GST, purified from E. coli (protein)
chain: MTLEELVASDNAVQKMQAVTAAVEQLLVAAQRQDRLTVGVYEAAKLMNVDPDSVVLCLLAIDEEEEDDIALQIHFTLIQSFCCDNDIDIVRVSGMQRLAQLLGEPAETLGTTEARDLHCLLVTNCHTDSWKSQGLVEVASYCEESRGNNQWVPYISLEER
modifications: left off: a dimerising Fc or GST
notes: full-length murine Gadd45β directly fused to GST, purified from E. coli
B2: Gadd45β: purified recombinant His6-tagged Gadd45β protein; also used generically for the recombinant Gadd45β proteins (protein, UniProt O75293 1-160, looked up)
Growth arrest and DNA …: MTLEELVACDNAAQKMQTVTAAVEELLVAAQRQDRLTVGVYESAKLMNVDPDSVVLCLLAIDEEEEDDIALQIHFTLIQSFCCDNDINIVRVSGMQRLAQLLGEPAETQGTTEARDLHCLLVTNPHTDAWKSHGLVEVASYCEESRGNNQWVPYISLQER
modifications: His6 tag
notes: purified recombinant His6-tagged Gadd45β protein; also used generically for the recombinant Gadd45β proteins
B3: His6-Gadd45β: human full-length Gadd45β purified from E. coli as His6-tagged protein (protein, UniProt O75293 1-160, looked up)
chain: B2 Growth arrest and DNA …
modifications: full-length His6 tag
notes: human full-length Gadd45β purified from E. coli as His6-tagged protein

Each molecule was assayed against T1, ASK1 (Homo sapiens, UniProt Q99683) (assay: Kinase assay of immunoprecipitated FLAG-ASK1 with recombinant Gadd45β proteins). Conditions: in vitro, even at high concentrations.
T1 sequence (Q99683 1-1374): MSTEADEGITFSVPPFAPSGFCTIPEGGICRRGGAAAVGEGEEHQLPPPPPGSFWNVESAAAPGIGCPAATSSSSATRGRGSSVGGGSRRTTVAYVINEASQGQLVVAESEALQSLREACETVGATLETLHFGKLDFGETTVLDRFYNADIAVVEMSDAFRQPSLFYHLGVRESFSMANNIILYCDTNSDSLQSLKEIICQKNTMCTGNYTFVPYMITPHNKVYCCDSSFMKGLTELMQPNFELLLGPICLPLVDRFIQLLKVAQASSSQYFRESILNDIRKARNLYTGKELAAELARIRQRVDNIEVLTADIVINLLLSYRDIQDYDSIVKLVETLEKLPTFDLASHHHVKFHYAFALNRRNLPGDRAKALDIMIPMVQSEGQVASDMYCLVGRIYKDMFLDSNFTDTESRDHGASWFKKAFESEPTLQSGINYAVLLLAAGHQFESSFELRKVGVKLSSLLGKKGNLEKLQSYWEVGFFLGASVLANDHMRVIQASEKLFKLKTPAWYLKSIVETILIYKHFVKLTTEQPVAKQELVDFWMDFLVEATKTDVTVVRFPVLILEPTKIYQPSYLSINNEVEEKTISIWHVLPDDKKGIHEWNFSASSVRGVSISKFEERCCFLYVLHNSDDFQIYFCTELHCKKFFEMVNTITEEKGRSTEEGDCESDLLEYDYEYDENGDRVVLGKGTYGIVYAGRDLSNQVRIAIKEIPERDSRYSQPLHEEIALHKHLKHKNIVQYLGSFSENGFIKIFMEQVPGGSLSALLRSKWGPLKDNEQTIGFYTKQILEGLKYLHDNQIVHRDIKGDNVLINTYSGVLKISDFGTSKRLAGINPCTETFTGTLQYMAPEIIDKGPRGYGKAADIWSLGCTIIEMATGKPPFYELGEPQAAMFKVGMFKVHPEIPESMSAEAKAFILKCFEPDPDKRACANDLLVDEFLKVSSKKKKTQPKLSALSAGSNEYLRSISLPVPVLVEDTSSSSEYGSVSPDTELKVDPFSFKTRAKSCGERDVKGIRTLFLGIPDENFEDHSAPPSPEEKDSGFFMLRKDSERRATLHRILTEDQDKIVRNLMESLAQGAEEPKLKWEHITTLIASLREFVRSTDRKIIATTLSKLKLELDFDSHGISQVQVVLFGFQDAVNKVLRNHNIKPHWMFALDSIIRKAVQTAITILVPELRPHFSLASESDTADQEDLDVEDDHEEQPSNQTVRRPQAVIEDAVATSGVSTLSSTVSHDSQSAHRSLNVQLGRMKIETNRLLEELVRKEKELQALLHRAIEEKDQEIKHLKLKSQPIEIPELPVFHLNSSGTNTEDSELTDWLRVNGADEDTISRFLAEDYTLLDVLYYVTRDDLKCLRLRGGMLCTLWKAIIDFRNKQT
Assay type: biochemical
Set-up: expressed in transfected cells; host or cells: HEK-293; anti-FLAG immunoprecipitate
Protocol: Next, the functional consequences, in vitro, of the physical interactions of Gadd45β with kinases in the JNK pathway were assessed. Murine and human, full-length Gadd45J3 proteins were purified from E. coli as GST-Gadd45β and His6-tagged Gadd45β (His6 disclosed as SEQ ID NO: 46), respectively, according to standard procedures. Prior to employing these proteins in in vitro assays, purity of all recombinant polypeptides was assured by >98%, by performing Coomassie blue staining of SDS polyacrylamide gels. Then, the ability of these proteins, as well as of control GST and His6-EF3 (His6 disclosed as SEQ ID NO: 46)proteins, to inhibit kinases in the JNK pathways was monitored in vitro. FLAG-tagged JNKK2, JNKK1, MKK3, and ASK1 were immunoprecipitated from transiently transfected 293 cells using anti-FLAG antibodies and pre-incubated for 10 minutes with increasing concentrations of recombinant proteins, prior to the addition of specific kinase substrates (i.e. GST-JNK1 with JNKK1 and JNKK2; GST-p38[…] with MKK3; GST-JNNK1 or GST-JNKK2 with ASK1). […] These findings indicate that, upon binding to Gadd45β, JNKK2 is effectively inactivated.
A question was whether Gadd45β inhibited active MKK7, in vitro. FLAG-MKK7 was immunoprecipitated from TNFα-treated or untreated 293 cells, and kinase assays were performed in the presence of purified His6-Gadd45β (His6 disclosed as SEQ ID NO: 46), GST-Gadd45β, or control proteins (FIG. 28d; see also FIG. 28g). […] Consistent with the in vivo findings (FIG. 27), the inhibitory activity of Gadd45β was specific. […] Indeed, the effects of Gadd45β on MKK7 phosphorylation by TNFα may be due inhibition of the MKK7 ability to auto-phoshorylate and/or to serve as substrate for upstream kinases. Altogether, the findings identify MKK7 as a target of Gadd45β, and of NF-[…]B, in the JNK cascade. Of interest, MKK7 is a selective activator of JNK, and its ablation abolishes JNK activation by TNFα. Thus, blockade of MKK7 is sufficient on its own to explain the effects of Gadd45β on JNK signaling—i.e. its specific and near-complete suppression of this signaling. […]

| Molecule | effect on ASK1 kinase activity |
| --- | --- |
| B1 | neither GST-Gadd45β nor His6-Gadd45β (His6 disclosed as SEQ ID NO: 46) had significant effects |
| B2 | did not hamper |
| B3 | neither GST-Gadd45β nor His6-Gadd45β (His6 disclosed as SEQ ID NO: 46) had significant effects |

Reference: patent US7326418B2, “Identification of novel factors that block programmed cell death or apoptosis by targeting JNK” (University of Chicago, priority 2001, dated 2008)
